Data as given in the supplement of paper PMC5998384.

What was measured:
HeLa Kyoto [1] = assay: solubility in G1/S (NP-40 vs SDS abundance) (log2 ratio); higher = more soluble; settings: cell cycle stage: G1/S
HeLa Kyoto [2] = assay: solubility change mitosis vs G1/S (difference of NP-40 vs SDS log2 ratios) (log2 ratio difference); higher = more soluble in mitosis
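For solubility change mitosis vs G1/S (difference of NP-40 vs SDS log2 ratios) in this document: synchronized HeLa Kyoto cells (double thymidine block for G1/S, nocodazole release for mitosis), protein amounts in NP-40 versus SDS lysates quantified by mass spectrometry, three biological replicates.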
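For solubility in G1/S (NP-40 vs SDS abundance) in this document: HeLa Kyoto cells arrested at G1/S by double thymidine block, proteins quantified by TMT10plex mass spectrometry in mild NP-40 versus SDS extracts, three biological replicates.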

Sequence | solubility in G1/S (log2) (HeLa Kyoto [1]) | solubility change mitosis (log2) (HeLa Kyoto [2])
MAELNTHVNVKEKIYAVRSVVPNKSNNEIVLVLQQFDFNVDKAVQAFVDGSAIQVLKEWNMTGKKKNNKRKRSKSKQHQGNKDAKDKVERPEAGPLQPQPPQIQNGPMNGCEKDSSSTDSANEKPALIPREKKISILEEPSKALRGVTEGNRLLQQKLSLDGNPKPIHGTTERSDGLQWSAEQPCNPSKPKAKTSPVKSNTPAAHLEIKPDELAKKRGPNIEKSVKDLQRCTVSLTRYRVMIKEEVDSSVKKIKAAFAELHNCIIDKEVSLMAEMDKVKEEAMEILTARQKKAEELKRLTDLASQMAEMQLAELRAEIKHFVSERKYDEELGKAARFSCDIEQLKAQIMLCGEITHPKNNYSSRTPCSSLLPLLNAHAATSGKQSNFSRKSSTHNKPSEGKAANPKMVSSLPSTADPSHQTMPANKQNGSSNQRRRFNPQYHNNRLNGPAKSQGSGNEAEPLGKGNSRHEHRRQPHNGFRPKNKGGAKNQEASLGMKTPEAPAHSEKPRRRQHAADTSEARPFRGSVGRVSQCNLCPTRIEVSTDAAVLSVPAVTLVA [SPATS2L] | -1.29 | 1.14
MAEPLLRKTFSRLRGREKLPRKKSDAKERGHPAQRPEPSPPEPEPQAPEGSQAGAEGPSSPEASRSPARGAYLQSLEPSSRRWVLGGAKPAEDTSLGPGVPGTGEPAGEIWYNPIPEEDPRPPAPEPPGPQPGSAESEGLAPQGAAPASPPTKASRTKSPGPARRLSIKMKKLPELRRRLSLRGPRAGRERERAAPAGSVISRYHLDSSVGGPGPAAGPGGTRSPRAGYLSDGDSPERPAGPPSPTSFRPYEVGPAARAPPAALWGRLSLHLYGLGGLRPAPGATPRDLCCLLQVDGEARARTGPLRGGPDFLRLDHTFHLELEAARLLRALVLAWDPGVRRHRPCAQGTVLLPTVFRGCQAQQLAVRLEPQGLLYAKLTLSEQQEAPATAEPRVFGLPLPLLVERERPPGQVPLIIQKCVGQIERRGLRVVGLYRLCGSAAVKKELRDAFERDSAAVCLSEDLYPDINVITGILKDYLRELPTPLITQPLYKVVLEAMARDPPNRVPPTTEGTRGLLSCLPDVERATLTLLLDHLRLVSSFHAYNRMTPQNLAVCFGPVLLPARQAPTRPRARSSGPGLASAVDFKHHIEVLHYLLQSWPDPRLPRQSPDVAPYLRPKRQPPLHLPLADPEVVTRPRGRGGPESPPSNRYAGDWSVCGRDFLPCGRDFLSGPDYDHVTGSDSEDEDEEVGEPRVTGDFEDDFDAPFNPHLNLKDFDALILDLERELSKQINVCL [SYDE1] | 0.269 | 0.106
MAESSSESDHFRCRDRLSPWAARSTHRGTRSLPTVEVTEKVNTITSTLQDTSRNLRQVDQMLGRYREYSNGQAGAIEHLKESLEQSIDQLRSQRLLRNSGGRSISVTSLSASDLDGGTGSELHHFPPTSPLKDYGDPQGIKRMRSRTGVRFVQETDDMTQLHGFHQSLRDLSSEQIRLGDDFNRELSRRSRSDAETKRALEELTEKLNEAQKQEVVSDRVERRLQELEREMRTERELVERRQDQLGLMSLQLQEALKKQEAKADEHEGAIKNKLRQTETEKNQLEQELELSRRLLNQSEGSRETLLHQVEELRTQLTKAEGDRKGLQHQVSQISKQQSNYQDEQGEDWRFRRGVEREKQDLEKQMSDLRVQLNFSAMASELEEVKRCMERKDKEKAHLASQVENLTRELENGEKQQLQMLDRLKEIQNHFDTCEAERKHADLQISELTRHAEDATKQAERYLSELQQSEALKEEAEKRREDLKLKAQESIRQWKLKHKKLERALEKQSETVDELTGKNNQILKEKDELKTQLYAALQQIENLRKELNDVLTKRALQEEELHSKEEKLRDIKSHQADLELEVKNSLDTIHRLESELKKQSKIQSQMKVEKAHLEEEIAELKKSQAQDKAKLLEMQESIKDLSAIRADLANKLAEEERAKKAVLKDLSDLTAQAKSRDEETATIITQLKLERDVHQRELKDLTSSLQSVKTKHEQNIQELMKHFKKEKSEAENHIRTLKAESLEEKNMAKIHRGQLEKLKSQCDRLTEELTQNENENKKLKLKYQCLKDQLEEREKHISIEEEHLRRMEEARLQLKDQLLCLETEQESILGVIGKEIDAACKTFSKDSVEKLKVFSSGPDIHYDPHRWLAESKTKLQWLCEELKERENREKNLRHQLMLCRQQLRNLTENKESELQCLFQQIERQEQLLDEIHREKRDLLEETQRKDEEMGSLQDRVIALETSTQVALDHLESVPEKLSLLEDFKDFRDSCSSSERTDGRYSKYRVRRNSLQHHQDDTKYRTKSFKGDRTFLEGSHTRGLDHSSSWQDHSRFLSSPRFSYVNSFTKRTVAPDSASNKEDATMNGTSSQPKKEEYGS [CEP128] | 0.351 | -0.182
MAGARRLELGEALALGSGWRHACHALLYAPDPGMLFGRIPLRYAILMQMRFDGRLGFPGGFVDTQDRSLEDGLNRELREELGEAAAAFRVERTDYRSSHVGSGPRVVAHFYAKRLTLEELLAVEAGATRAKDHGLEVLGLVRVPLYTLRDGVGGLPTFLENSFIGSAREQLLEALQDLGLLQSGSISGLKIPAHH [NUDT16] | 0.0531 | -0.184
MAGPLRAPLLLLAILAVALAVSPAAGSSPGKPPRLVGGPMDASVEEEGVRRALDFAVGEYNKASNDMYHSRALQVVRARKQIVAGVNYFLDVELGRTTCTKTQPNLDNCPFHDQPHLKRKAFCSFQIYAVPWQGTMTLSKSTCQDA [CST3] | -0.0401 | 0.378
MAGPQPLALQLEQLLNPRPSEADPEADPEEATAARVIDRFDEGEDGEGDFLVVGSIRKLASASLLDTDKRYCGKTTSRKAWNEDHWEQTLPGSSDEEISDEEGSGDEDSEGLGLEEYDEDDLGAAEEQECGDHRESKKSRSHSAKTPGFSVQSISDFEKFTKGMDDLGSSEEEEDEESGMEEGDDAEDSQGESEEDRAGDRNSEDDGVVMTFSSVKVSEEVEKGRAVKNQIALWDQLLEGRIKLQKALLTTNQLPQPDVFPLFKDKGGPEFSSALKNSHKALKALLRSLVGLQEELLFQYPDTRYLVDGTKPNAGSEEISSEDDELVEEKKQQRRRVPAKRKLEMEDYPSFMAKRFADFTVYRNRTLQKWHDKTKLASGKLGKGFGAFERSILTQIDHILMDKERLLRRTQTKRSVYRVLGKPEPAAQPVPESLPGEPEILPQAPANAHLKDLDEEIFDDDDFYHQLLRELIERKTSSLDPNDQVAMGRQWLAIQKLRSKIHKKVDRKASKGRKLRFHVLSKLLSFMAPIDHTTMNDDARTELYRSLFGQLHPPDEGHGD [AATF] | -2.12 | 0.788
MAGYLKLVCVSFQRQGFHTVGSRCKNRTGAEHLWLTRHLRDPFVKAAKVESYRCRSAFKLLEVNERHQILRPGLRVLDCGAAPGAWSQVAVQKVNAAGTDPSSPVGFVLGVDLLHIFPLEGATFLCPADVTDPRTSQRILEVLPGRRADVILSDMAPNATGFRDLDHDRLISLCLTLLSVTPDILQPGGTFLCKTWAGSQSRRLQRRLTEEFQNVRIIKPEASRKESSEVYFLATQYHGRKGTVKQ [FTSJ2] | 0.00974 | 0.0979
MAHEAMEYDVQVQLNHAEQQPAPAGMASSQGGPALLQPVPADVVSSQGVPSILQPAPAEVISSQATPPLLQPAPQLSVDLTEVEVLGEDTVENINPRTSEQHRQGSDGNHTIPASSLHSMTNFISGLQRLHGMLEFLRPSSSNHSVGPMRTRRRVSASRRARAGGSQRTDSARLRAPLDAYFQVSRTQPDLPATTYDSETRNPVSEELQVSSSSDSDSDSSAEYGGVVDQAEESGAVILEEQLAGVSAEQEVTCIDGGKTLPKQPSPQKSEPLLPSASMDEEEGDTCTICLEQWTNAGDHRLSALRCGHLFGYRCISTWLKGQVRKCPQCNKKARHSDIVVLYARTLRALDTSEQERMKSSLLKEQMLRKQAELESAQCRLQLQVLTDKCTRLQRRVQDLQKLTSHQSQNLQQPRGSQAWVLSCSPSSQGQHKHKYHFQKTFTVSQAGNCRIMAYCDALSCLVISQPSPQASFLPGFGVKMLSTANMKSSQYIPMHGKQIRGLAFSSYLRGLLLSASLDNTIKLTSLETNTVVQTYNAGRPVWSCCWCLDEANYIYAGLANGSILVYDVRNTSSHVQELVAQKARCPLVSLSYMPRAASAAFPYGGVLAGTLEDASFWEQKMDFSHWPHVLPLEPGGCIDFQTENSSRHCLVTYRPDKNHTTIRSVLMEMSYRLDDTGNPICSCQPVHTFFGGPTCKLLTKNAIFQSPENDGNILVCTGDEAANSALLWDAASGSLLQDLQTDQPVLDICPFEVNRNSYLATLTEKMVHIYKWE [RFWD3] | -0.0967 | -0.0684
MAHLGPTPPPHSLNYKSEDRLSEQDWPAYFKVPCCGVDTSQIESEEAEVDVRERETQRDREPKRARDLTLRDSCTDNSMQFGTRTTTAEPGFMGTWQNADTNLLFRMSQQAIRCTLVNCTCECFQPGKINLRTCDQCKHGWVAHALDKLSTQHLYHPTQVEIVQSNVVFDISSLMLYGTQAVPVRLKILLDRLFSVLKQEEVLHILHGLGWTLRDYVRGYILQDAAGKVLDRWAIMSREEEIITLQQFLRFGETKSIVELMAIQEKEGQAVAVPSSKTDSDIRTFIESNNRTRSPSLLAHLENSNPSSIHHFENIPNSLAFLLPFQYINPVSAPLLGLPPNGLLLEQPGLRLREPSLSTQNEYNESSESEVSPTPYKNDQTPNRNALTSITNVEPKTEPACVSPIQNSAPVSDLTKTEHPKSSFRIHRMRRMGSASRKGRVFCNACGKTFYDKGTLKIHYNAVHLKIKHRCTIEGCNMVFSSLRSRNRHSANPNPRLHMPMLRNNRDKDLIRATSGAATPVIASTKSNLALTSPGRPPMGFTTPPLDPVLQNPLPSQLVFSGLKTVQPVPPFYRSLLTPGEMVSPPTSLPTSPIIPTSGTIEQHPPPPSEPVVPAVMMATHEPSADLAPKKKPRKSSMPVKIEKEIIDTADEFDDEDDDPNDGGAVVNDMSHDNHCHSQEEMSPGMSVKDFSKHNRTRCISRTEIRRADSMTSEDQEPERDYENESESSEPKLGEESMEGDEHIHSEVSEKVLMNSERPDENHSEPSHQDVIKVKEEFTDPTYDMFYMSQYGLYNGGGASMAALHESFTSSLNYGSPQKFSPEGDLCSSPDPKICYVCKKSFKSSYSVKLHYRNVHLKEMHVCTVAGCNAAFPSRRSRDRHSANINLHRKLLTKELDDMGLDSSQPSLSKDLRDEFLVKIYGAQHPMGLDVREDASSPAGTEDSHLNGYGRGMAEDYMVLDLSTTSSLQSSSSIHSSRESDAGSDEGILLDDIDGASDSGESAHKAEAPALPGSLGAEVSGSLMFSSLSGSNGGIMCNICHKMYSNKGTLRVHYKTVHLREMHKCKVPGCNMMFSSVRSRNRHSQNPNLHKNIPFTSVD [BNC2] | -0.628 | 0.235
MAHYKAADSKREQFRRYLEKSGVLDTLTKVLVALYEEPEKPNSALDFLKHHLGAATPENPEIELLRLELAEMKEKYEAIVEENKKLKAKLAQYEPPQEEKRAE [MYCBP] | -0.523 | 0.968
